B1: OR4K15 (parent)
chain: GUUAACGGUCAUAGGCCAUGGAAACUAGGAGCACCAUUUCGCUGCCAGUGAAGAAAUGAACAAAGAAAAUCUGGGCCAGGCAGGCAUCAAAAGAAAUAGUCUUGCGCUCAACCAGAAAGUCUGUAAUCAUUUUAAGGGUA

The data set covers variants of B1. The experiment in a line: self-cleavage, relative activity (ratio to wild type); higher = more cleavage; in vitro, sequencing; the parent is a self-cleaving ribozyme.
Regarding GUUAACGGUCAUAGGCCAUGGAAACUAGGAGCACCAUUUCGCUGCCAGUGAAGAAACGAACAAAGAAAAUCUGGGCCAGGCAGGCAUCAAAAGAAAUAGUCUUGCGCUCAACCAGAAAGUCUGUAAUCGUUUUAAGGGUA [U57C A129G], the self-cleavage turned out to be 1.43. As for GUUAACGGUCAUAGGCCAUGGAAACUAGGAGCACCAUUUCGCUGCCAGUGAAGAAACGAACAAAGAAAAUCUGGGCCAGGCAGGCAUCAAAAGAAAUAGUCUUGCGCUCAACCAGAAAGUCUGUAAUCUUUUUAAGGGUA [U57C A129U], the self-cleavage was 1.47. With GUUAACGGUCAUAGGCCAUGGAAACUAGGAGCACCAUUUCGCUGCCAGUGAAGAAACGAACAAAGGAAAUCUGGGCCAGGCAGGCAUCAAAAGAAAUAGUCUUGCGCUCAACCAGAAAGUCUGUAAUCAUUUUAAGGGUA [U57C A66G], the self-cleavage is 0.31.

As for GUUAACGGUCAUAGGCCAUGGAAACUAGGAGCACCAUUUCGCUGCCAGUGAAGAAACGAACAAAGAAAAUCUGGGCCAGGCAGGCAUCAAAAGAAAUAGUCUUGCGCUCAACCAGAAAGUCUGUAAUCAUUUUAAGGGUU [U57C A140U], the self-cleavage turned out to be 1.78. As for GUUAACGGUCAUAGGCCAUGGAAACUAGGAGCACCAUUUCGCUGCCAGUGAAGAAACGAACAAAGAAAAUCUGGGCCAGGCAGGCAUCAAAAGUAAUAGUCUUGCGCUCAACCAGAAAGUCUGUAAUCAUUUUAAGGGUA [U57C A94U], the figure is 1.23; as for GUUAACGGUCAUAGGCCAUGGAAACUAGGAGCACCAUUUCGCUGCCAGUGAAGAAACGAACAAAGAAAAUCUGGGCCAGGCAGGCAUCGAAAGAAAUAGUCUUGCGCUCAACCAGAAAGUCUGUAAUCAUUUUAAGGGUA [U57C A89G], 0.75.

Turning to GUUAACGGUCAUAGGCCAUGGAAACUAGGAGCACCAUUUCGCUGCCAGUGAAGAAACGAACAAAGAAAAUCUGGGCCUGGCAGGCAUCAAAAGAAAUAGUCUUGCGCUCAACCAGAAAGUCUGUAAUCAUUUUAAGGGUA [U57C A78U], the self-cleavage is 0.26. For the variant GUUAACGGUCAUAGGCCAUGGAAACUAGGAGCACCAUUUCGCUGCCAGUGAAGAAACGAACAAAGAAAAUCUGGGCCGGGCAGGCAUCAAAAGAAAUAGUCUUGCGCUCAACCAGAAAGUCUGUAAUCAUUUUAAGGGUA [U57C A78G], the self-cleavage came out at 0.23. As for GUUAACGGUCAUAGGCCAUGGAAACUAGGAGCACCAUUUCGCUGCCAGUGAAGAAACGAACAAAGAAAAUCUGGGCCAGGCAGGCGUCAAAAGAAAUAGUCUUGCGCUCAACCAGAAAGUCUGUAAUCAUUUUAAGGGUA [U57C A86G], the self-cleavage came to 0.94. With GUUAACGGUCAUAGGCCAUGGAAACUAGGAGCACCAUUUCGCUGCCAGUGAAGAAACGAACAAAGAAAAACUGGGCCAGGCAGGCAUCAAAAGAAAUAGUCUUGCGCUCAACCAGAAAGUCUGUAAUCAUUUUAAGGGUA [U57C U70A] the figure was 0.68. For GUUAACGGUCAUAGGCCAUGGAAACUAGGAGCACCAUUUCGCUGCCAGUGAAGAAACGAACAAAGAAAAUCUGGGCCAGGCAGGCAUCAAAAGAAAUAGUCUUGCGCUCAACCAGAGAGUCUGUAAUCAUUUUAAGGGUA [U57C A117G], the self-cleavage was 0.84.

For the variant GUUAACGGUCAUAGGCCAUGGAAACUAGGAGCACCAUUUCGCUGCCAGUGAAGAAACGAACAAAGAAAAUCUGGGCCAGGCAGGCAUCAAGAGAAAUAGUCUUGCGCUCAACCAGAAAGUCUGUAAUCAUUUUAAGGGUA [U57C A91G], the self-cleavage is 0.84.

Consider GUUAACGGUCAUAGGCCAUGGAAACUAGGAGCACCAUUUCGCUGCCAGUGAAGAAACGAACAAAGAAAAUCAGGGCCAGGCAGGCAUCAAAAGAAAUAGUCUUGCGCUCAACCAGAAAGUCUGUAAUCAUUUUAAGGGUA [U57C U72A], for which the self-cleavage stood at 0.18. With GUUAACGGUCAUAGGCCAUGGAAACUAGGAGCACCAUUUCGCUGCCAGUGAAGAAACGAACAAAGAAAAUCUGGGCCAGGCAGGCAUCAAAAGAAAUAGUCUUGCUCUCAACCAGAAAGUCUGUAAUCAUUUUAAGGGUA [U57C G106U] the figure was 0.03; with GUUAACGGUCAUAGGCCAUGGAAACUAGGAGCACCAUUUCGCUGCCAGUGAAGAAACGAACAAAGAAAAUCUGGGCCAGGCAGGCAUCAAAAGAAAUAGUCUUGCGCUCAACCAGAAAGUCUGUAGUCAUUUUAAGGGUA [U57C A126G], 0.4; with GUUAACGGUCAUAGGCCAUGGAAACUAGGAGCACCAUUUCGCUGCCAGUGAAGAAACGAACAAAGAAAAUCUGGGCCAGGCAGGCAUCAAAAGAAAUAGUCUUGCGCUCAACCAGAAAGUCUGUAAUCAUUUUAAGUGUA [U57C G137U], 2.18.

Consider GUUAACGGUCAUAGGCCAUGGAAACUAGGAGCACCAUUUCGCUGCCAGUGAAGAAACGAACAAAGAAAAUCUGGGCCAGGCAGGCAUCAAAAGAAAUAGUCUUGCGCUCAACCAGAAAGUCUGUAAUCAUUUUAAGCGUA [U57C G137C], for which the self-cleavage was determined as 0.73. As for GUUAACGGUCAUAGGCCAUGGAAACUAGGAGCACCAUUUCGCUGCCAGUGAAGAAACGAACAAAGAAAAUCUGGGCCAGGCAGGCAUCAAAAGAAAUAGUCUUGCGCUCAACCAGAAAGUCUGUAAUCAUUUUAAGGGUA [U57C], the figure is 0.86. With GUUAACGGUCAUAGGCCAUGGAAACUAGGAGCACCAUUUCGCUGCCAGUGAAGAAACGAACAAAGAAAAUCUGGGCCAGGCAGGCAUCAAAAGAGAUAGUCUUGCGCUCAACCAGAAAGUCUGUAAUCAUUUUAAGGGUA [U57C A95G] the figure was 1.76; with GUUAACGGUCAUAGGCCAUGGAAACUAGGAGCACCAUUUCGCUGCCAGUGAAGAAACGAACAAAGAAAAUCUGGGCCAGGCAGGCAUCAAAAGAUAUAGUCUUGCGCUCAACCAGAAAGUCUGUAAUCAUUUUAAGGGUA [U57C A95U], 1.28; with GUUAACGGUCAUAGGCCAUGGAAACUAGGAGCACCAUUUCGCUGCCAGUGAAGAAACGAACAAAGAAAAUCUGGGCCAGGCAGGCAUCAGAAGAAAUAGUCUUGCGCUCAACCAGAAAGUCUGUAAUCAUUUUAAGGGUA [U57C A90G], 0.97. As for GUUAACGGUCAUAGGCCAUGGAAACUAGGAGCACCAUUUCGCUGCCAGUGAAGAAACGAACAAAGAAAAUCUGGGCCAGGCAGGCAUCAUAAGAAAUAGUCUUGCGCUCAACCAGAAAGUCUGUAAUCAUUUUAAGGGUA [U57C A90U], the figure is 1.51. GUUAACGGUCAUAGGCCAUGGAAACUAGGAGCACCAUUUCGCUGCCAGUGAAGAAACGAACAAAGAAAGUCUGGGCCAGGCAGGCAUCAAAAGAAAUAGUCUUGCGCUCAACCAGAAAGUCUGUAAUCAUUUUAAGGGUA [U57C A69G]: the self-cleavage worked out at 0.75. As for GUUAACGGUCAUAGGCCAUGGAAACUAGGAGCACCAUUUCGCUGCCAGUGAAGAAACGAACAAAGAAAUUCUGGGCCAGGCAGGCAUCAAAAGAAAUAGUCUUGCGCUCAACCAGAAAGUCUGUAAUCAUUUUAAGGGUA [U57C A69U], the figure is 1.63. As for GUUAACGGUCAUAGGCCAUGGAAACUAGGAGCACCAUUUCGCUGCCAGUGAAGAAACGAACAAAGAAAAUCUGGGCCAGGCAGGCAUCAAAAGAAAUAGUCUUGCGCUCAACCGGAAAGUCUGUAAUCAUUUUAAGGGUA [U57C A114G], the figure is 0.12; as for GUUAACGGUCAUAGGCCAUGGAAACUAGGAGCACCAUUUCGCUGCCAGUGAAGAAACGAACAGAGAAAAUCUGGGCCAGGCAGGCAUCAAAAGAAAUAGUCUUGCGCUCAACCAGAAAGUCUGUAAUCAUUUUAAGGGUA [U57C A63G], 1.05; as for GUUAACGGUCAUAGGCCAUGGAAACUAGGAGCACCAUUUCGCUGCCAGUGAAGAAACGAACAAAGAAAAUCUGGGCCAGGCAGGCAUCAAAAGAAAUAGUCUUGCGCUCAACCAGGAAGUCUGUAAUCAUUUUAAGGGUA [U57C A116G], 0.33. Take GUUAACGGUCAUAGGCCAUGGAAACUAGGAGCACCAUUUCGCUGCCAGUGAAGAAACGAACAAAGAAAAUCUGGGCCAGGCAGGCAUCAAAAGAAAUAGUCUUGCGCUCAACCAGUAAGUCUGUAAUCAUUUUAAGGGUA [U57C A116U]: the self-cleavage was found to be 0.33. With GUUAACGGUCAUAGGCCAUGGAAACUAGGAGCACCAUUUCGCUGCCAGUGAAGAAACGAACAAAGAAAAUCUGGGCCAGGCAGGCAUCAAAAGAAAUAGUAUUGCGCUCAACCAGAAAGUCUGUAAUCAUUUUAAGGGUA [U57C C101A], the self-cleavage came to 0.1. For GUUAACGGUCAUAGGCCAUGGAAACUAGGAGCACCAUUUCGCUGCCAGUGAAGAAACGAACUAAGAAAAUCUGGGCCAGGCAGGCAUCAAAAGAAAUAGUCUUGCGCUCAACCAGAAAGUCUGUAAUCAUUUUAAGGGUA [U57C A62U], the self-cleavage came to 2.11. For GUUAACGGUCAUAGGCCAUGGAAACUAGGAGCACCAUUUCGCUGCCAGUGAAGAAACGAACAAAGAAAAUCUGGGCCAGGCAGGCAUCAAAAGAAAUAGUCUUGCGCUCAACCAGAAAGUCUGUGAUCAUUUUAAGGGUA [U57C A125G], the self-cleavage worked out at 0.29. With GUUAACGGUCAUAGGCCAUGGAAACUAGGAGCACCAUUUCGCUGCCAGUGAAGAAACGAACAAAGAAAAUCUGGGCCAGGCAGGCAUCAAAAGAAAUAGUCUUGCGCUCAACCAGAAAGUCUGUAAUCAUUUUAUGGGUA [U57C A135U] the figure was 1.02; with GUUAACGGUCAUAGGCCAUGGAAACUAGGAGCACCAUUUCGCUGCCAGUGAAGAAACGAACAAAGAAAAUCUGGGCCAGGCAGGCAUCAAAAGAAAUAGUCUUGGGCUCAACCAGAAAGUCUGUAAUCAUUUUAAGGGUA [U57C C105G], 0.01; with GUUAACGGUCAUAGGCCAUGGAAACUAGGAGCACCAUUUCGCUGCCAGUGAAGAAACGAACAAAGAAAAUCUGGGCCAGGCAGGCAUCAAAAGAAAUAGUCUUGCGCUCGACCAGAAAGUCUGUAAUCAUUUUAAGGGUA [U57C A110G], 0.1. Consider GUUAACGGUCAUAGGCCAUGGAAACUAGGAGCACCAUUUCGCUGCCAGUGAAGAAACGAACAAAGAAAAUCUGUGCCAGGCAGGCAUCAAAAGAAAUAGUCUUGCGCUCAACCAGAAAGUCUGUAAUCAUUUUAAGGGUA [U57C G74U], for which the self-cleavage came to 0.39. As for GUUAACGGUCAUAGGCCAUGGAAACUAGGAGCACCAUUUCGCUGCCAGUGAAGAAACGAACAAAGAAAAUCUGAGCCAGGCAGGCAUCAAAAGAAAUAGUCUUGCGCUCAACCAGAAAGUCUGUAAUCAUUUUAAGGGUA [U57C G74A], the figure is 0.28; as for GUUAACGGUCAUAGGCCAUGGAAACUAGGAGCACCAUUUCGCUGCCAGUGAAGAAACGAACAAAGAAUAUCUGGGCCAGGCAGGCAUCAAAAGAAAUAGUCUUGCGCUCAACCAGAAAGUCUGUAAUCAUUUUAAGGGUA [U57C A68U], 2.04; as for GUUAACGGUCAUAGGCCAUGGAAACUAGGAGCACCAUUUCGCUGCCAGUGAAGAAACGAACAAAGAAAAUCUGGGCCAGGCUGGCAUCAAAAGAAAUAGUCUUGCGCUCAACCAGAAAGUCUGUAAUCAUUUUAAGGGUA [U57C A82U], 0.21.

GUUAACGGUCAUAGGCCAUGGAAACUAGGAGCACCAUUUCGCUGCCAGUGAAGAAACGAACAAAGAAAAUCUGGGCCAGGCCGGCAUCAAAAGAAAUAGUCUUGCGCUCAACCAGAAAGUCUGUAAUCAUUUUAAGGGUA [U57C A82C]: the self-cleavage was found to be 0.23. Consider GUUAACGGUCAUAGGCCAUGGAAACUAGGAGCACCAUUUCGCUGCCAGUGAAGAAACGAACAAAGAAAAUCUGGGCCAGGCAGGCAUCAAAAGAAGUAGUCUUGCGCUCAACCAGAAAGUCUGUAAUCAUUUUAAGGGUA [U57C A96G], for which the self-cleavage came to 1.17.

For the variant GUUAACGGUCAUAGGCCAUGGAAACUAGGAGCACCAUUUCGCUGCCAGUGAAGAAACGAACAAAGAGAAUCUGGGCCAGGCAGGCAUCAAAAGAAAUAGUCUUGCGCUCAACCAGAAAGUCUGUAAUCAUUUUAAGGGUA [U57C A67G], the self-cleavage was 0.83.

The values are drawn from the RNAGym collection of RNA variant scans (doi:10.7554/elife.90254).
